The text below walks through data of the DeepSol protein solubility set.

The nature of the series: soluble on expression in E. coli; label from the status in PepcDB or PDB records.
With “MLDRPHHTTADIIARCEALFSDLSFTAAREWKAAEPGRIVVGFLPYYAPRELVHAAGGLPLGIFGGGDQLEVIHGDAYYQSYICRIPRSTIELGVSGRLDFVDGMMFPSICDVIRNLSGMWKLMFPSKGARYIDLPHNFDDDLGGEFYVSELRETCEWLSTLTGKPITSDAIRASIAVFNDNRRLIRALYQLRADEPWNVPSSELYLLLRAGMVIPVEEHNQMLADYLAAVRLQQRPIKDNSRVVICGMFCEQPPLNLIKSIELSGCYIVDDDFILVTRWENSDVALDGDPLSNLASAYLHDSKSTPPKYEPDEAKKGLYLVDSVRKNRAEGVIFAMTSFCDPGLLERPMLQAVLKSHGIPQIAFKYAENSGQMQPIREQAGTFADSIKLWSGA”, the “soluble on expression in E. coli” value is on record as “not soluble”. For “MLEALKTANKTVGMKQSLKAVESLKAKQVFIAKDADEHVVARIKELCIKNNIPIVYVDTMKQLGKACNIDVGASVACLL”, the “soluble on expression in E. coli” value was “not soluble”. The entry for “MLEDLSQGKGSNHEKRKMESTAQITEEDSKLDEVVGLQKQICDLGTELTRQSSWWCIAHKDLQSQIDALIKENQEIRAELKTLKKQDAEATKACIGSPTPARASNTLPVYIKIEGTDSERTTSWDERDELSGSPPNRSTMATGGTDSQDEMLSFTSVDEKVIHMSSKFLQRSLGRMSPEPLSDSTFLDTESLADIWSSNPETSDGELLLHAQASRVIPCFSPNALWVQNIPTKSRAPKEIQQTSDTTKTDETKEKQHPNGKVERMLSDGRTIITFPNGTRKEISADKKTTLIRFFNGDMKKIKSNQKVIYYYADAQTMHTTYPDGVEVVQFPNKWTEKFYPDGSKETVFPDGTVKRLKDGCEETVFPDGTFVTVKRNGDKTIMFSNGEKEIHTARFKRKEFPDGTTKTVYCNGCQETKYASGRVRVKDEKGTVILDWK” is “not soluble”; for “MLEFHNVPLKTILRRAIMSLPTNFNDILRFFEKDYDTAKEDNALSARGQFLQLYPLNHLKKMTLDDYVIGKGTASFCACVEVKTRTWANMQGATALKFGIYYGKSKSDPTVRYRFTQKFGDDDSTNKEVFANVKDALLDLIQSGKELDFRAIDENPLSQMFKAKILSLYFPEHFINICSKDHLKEIAMEMGIKEQQFISKYQHLLFKKKLEHKITRNWSNPKYMSFLYAQFIRKDLSSAPAVIVKKPQKRNHPEVNFEEITDNRDLIGKKSEEYALNWEKNRLIGLGYSKLAEEIDDRRNRPTYGYDFLSFNAPGDERYIEVKSIGRDGKEGAFRFFLSGNELTVSNLSNHSKNYYFYLVQYGKDGEPCNLYVKHAQDLYTNSEMSPCAYVVRFDLEEPALEHHHHHH” it is “soluble”; for “MLEGVIRESITKANAKALKKDGYLIANVYGKGIENVNGAFKLNPFIKYLKEKKHLIFPVKLGDKTFEVVVQEYQKNPVTNELIHVDLLAVTKGVKSKFKVPIKHQGTPVGLKNKGILMLSKKRISVECAPEHLPDHYLVDVAPLDVNESILVRDLEKHENVKILDHDSIAVIGVIKAK” it is “not soluble”. Next, “MLEINKIHQMNCFDFLDQVENKSVQLAVIDPPYNLSKADWDSFDSHNEFLAFTYRWIDKVLDKLDKDGSLYIFNTPFNCAFICQYLVSKGMIFQNWITWDKRDGMGSAKRRFSTGQETILFFSKSKNHTFNYDEVRVPYESTDRIKHASEKGILKNGKRWFPNPNGRLCGEVWHFSSQRHKEKVNGKTVKLTHITPKPRDLIERIIRASSNPNDLVLDCFMGSGTTAIVAKKLGRNFIGCDMNAEYVNQANFVLNQLEIN”: “soluble”; “MLERTQVFVDTSYLLASFYNSWETGARAQLEIDLPEVVGVLGRMIEQQLKQPVQRQMWYDGIPDSGPHRYQRALRTCDGVQLRAGQLIEWGERRTQKAVDTRLVADLVLAGVRGQCSDIVLVSGDADMIPGVQEAANAGLRVHLYGFGWDSMSSQLRHCCDTTTILDPREDFAECMQLQVLEGPLPPVVRVKPINDAEPIEDLDFTPVPGVASPFEEVSAKDEKFSPRPSEPAEALSEQVCEAQYEISKHEGQTADSGEITESFEAAEIKVTEFFGEPAAPVAESGVEAPTPEAPTVPEAAKPTPAKPKTPKAEPQKQESPKPGTPKPKAPSPADIPPKAPADTEEHSEVEAEIEDSRPKIPSPSMMAPRRKLRSRYVPLPNEVWATAGFQTPYDVGQQYASWWFENAATSTQRDQAHLLSGGGLPPEIDRPLLQFACETLHEYTLTEAQRVALRDGFHSGIRGVLLNQRDS”: “soluble”; “MLETLSFTERDEFQRRNIAENIIKLLKPEADISPLVIDGAWGTGKSEFSIKLKNLIIEQETESKVVYVDAFKGDHAESPLLLITSAIASILPEEEKQNFIKRSLPAIRFGLKTVLKAGAGWFLRQEASEVAEEFQDAMKKASNAAIDGTIENILEDHMESEKNINSLKSCIEDISNKQKIVIIIDELDRCKPSFSTNIIETIKHIFDINNVFFILVTNTEQLKASINHIYGYSINSQKYLDKFIKYTITLPDTCLINGHNVCKTSVIYWDHLVGETTLLNKINSLVGSFICDLIQRTNLSLRETQTFSRNLNIFRLLNDNECKSNDPFINMIVVVAVFIHCFGDKEKLKQEITAESISYLADLLNIKEIPYSYERRSQIPEISIIFFGIIKDSITLNERFAPKSDEELKKFTNVYTDYEHLKFWSTTPRELMIKYINQMSFIQLEHHHHHH”: “not soluble”. Next, “MLFCPLLLIFLIANSNGEPLPPDMKDLQNHLDTFQKAVDTGDKKALREMMPVNQRISEEKLDEFIKTRKSFKMTAKSAQATSSGITGKVDYAIGKATLLLDVVLEKSSSSPSAYKFVSISKQSIPSQRREIPDCFYTLLIMCPYDLIVALAQTAENVLKG”: “not soluble”; “MLFEGLPCLAVWCKNRLSAVLPVGGLNVSENLLEIETHPFDPVLPPKAAVMMMGTFPPKEDKRAMQFHYPNFQNDMWRVYGLVFFNDAAHFQRLSEKAFDAEKIKAFLHERGIASCPTVLKAVRQHGNASDKFLKVVETVDLAAVLAKIPECRHICTTGGKATEILLDIQGGGIKMPKTGETVPFPFAGRDLTLTRLPSTSRAYPLSLAKKAAAYRAFFEMAGLCEKQLLEHHHHHH”: “not soluble”.

For “MLGAIAYTGNKQSLLPELKSHFPKYNRFVDLFCGGLSVSLNVNGPVLANDIQEPIIEMYKRLINVSWDDVLKVIKQYKLSKTSKEEFLKLREDYNKTRDPLLLYVLHFHGFSNMIRINDKGNFTTPFGKRTINKNSEKRFNHFKQNCDKIIFSSLHFKDVKILDGDFVYVDPPYLITVADYNKFWSEDEEKDLLNLLDSLNDRGIKFGLSNVLEHHGKENTLLKEWSKKYNVKHLNKKYVFNIYHSKEKNGTDEVYIFN”, the “soluble on expression in E. coli” value was “soluble”. In the case of “MLGGKGRPSGVGGYRILVTTSRRPSPRIRSFVKDLSATIPGAFRFTRGHYSMEELAREAIIRGADRIVVVGERRGNPGIIRVYAVEGPERPDNIVSFIVKGVSLSRERRWGLPSLRGGEVLVARPLDSGVAVEFADAFVIAFHARLKPPEAAGYVEAVIESLDARTVAVTFRYGGAPVGPMLRLGKPAEMVKRGRRVAAALEHHHHHH”, the “soluble on expression in E. coli” value is given as “not soluble”. Take “MLGGYAHRIARIDLSTGQVEYFAPDPKDLEMYVGGRGLGVKYVFENGPQVDPLGPENLLCIMNGPLSGTRAKMSGRLAVVTKSPLTGTVTDSHMGGWTAAKLKWAGFDGLLIKGASEKPVYLLVKDGEVSIHDASDLWGKTTHETCRILRERHGEEADVMAIGPAGENLVRFANWINNDERAAGRGGTGAVAGSKKLKAIVVVGTHDKMPQPKDPELWKEADRLASATINDPKNVTAPKKGGLSLYGTNVLMNITNVMGALPTFNAQHTCIEGAEKISGEYIREHRLIKDNTCHACPVACKKMVEVHINGKTIRFESYEYESAWALGAHSGHTDTDWTGYAIYLCNAYGMDTIEAGNAIAVLMEATEKGYYQGEDGIRFGDKEGEIRVLEAIAYRKGVGDMLAEGPARFAKAIGHPEIALEVKGQSIPAYDPRGLKGMGIAYATSNRGACHLRAYTPASEILGVPYKTDPLAWEGKGKLTKLFQDLSAFTDSLDLCKFSQFAEGPEEYAKQLAAYWGRPVTPEEILRIGERIYNLERYYNNLAGWGEGSDYLPERFLKEPSDCAGSKGQVTELDRMLEEYYRERGWERGVVPPAKLQELGILSQAADD”: the “soluble on expression in E. coli” value is listed as “soluble”.

“MLGIVIATHGALSDGAKDAATVIMGATENIETVNLNSGDDVQALGGQIKTAIENVQQGDGVLVMVDLLSASPYNQAVLVINELEPALQKKIFVVSGTNLPMVLEAINHQLLGTPIAEAAQAIVAQGKESVQAWDISMTSFEDEEDEDDDF”: the “soluble on expression in E. coli” value is given as “soluble”. As to “MLGKLPQQANDYLNSFNWERQVSHAKEKLTALTKKYRITENDIQIALDDAKINFNEKLSQLQTYMI”, the “soluble on expression in E. coli” value is on record as “not soluble”.

With “MLGLVSLCALILILWRVVYRSVTRPLAEQTQALQRLLDGDIDSPFPETAGVRELDTIGRLMDAFRSSVHALNRHREQLAAQVKARTAELQELVIEHRQARAEAEKASQAKSAFLAAMSHEIRTPLYGILGTAQLLADNPALNAQRDDLRAITDSGESLLTILNDILDYSAIEAGGKNVSVSDEPFEPRPLLESTLQLMSGRVKGRPIRLATEIADDVPTALMGDPRRIRQVITNLLSNALRFTDEGHIILRSRTDGEQWLVEVEDSGCGIDPAKLAEIFQPFVQVSGKRGGTGLGLTISSRLAQAMGGELSATSTPEVGSCFCLRLPLRIATAPVPKTVNQAVRLDDLRLLLIEDNPLTQRITVEMLNTSGAQVVAVGNAAQAIEALQNSEPFAAALVDFDLPDIDGITLARQLAQQYPSLVLIGFSAHVIDETLRQRTSSLFRGIIPKPVPREVLGQLLAHYLQLQVNNDQPLDVSQLNEDAHLMGAEKIHEWLILFKQHALPLLDEIDIARASQDNEKIKRAAHQLKSSCSSLGMRSASQQCAQLEQQPLSAPLPHEEITRSVAALEAWLIRKT”, the “soluble on expression in E. coli” value is “not soluble”. Next, “MLKELEVNGKRFFLAPESNFWAIGEREEVERFYRERKDALLEEMQRYRFEVDIRTAYINPTESCNRNCPYCYIPAEIRERGTKMSYEKLEEILTVLAENGVERVIFHGAEPLMVKDEIFRAMEDFDFKYGIQTNATLLEEEDAELLMKKGASVGISLDSPYKETNDYLRGKGHYDAVMRALDFFDGYRSLNIIMTVNKHNFQHLPAMVDFLAGKVSVMLANPVRGTSPGGRELRPPEGFEDYYIKAIDRAIENTKSGRRIVIGDFANILLGLVAPTSRVLQCDISPCGGGRRFFAVSADGIYPCGEFIGMEEFRANLSALSDWSSLIEKFEVVRKRTVEQIEECRNCEFRNLCGAPCPAEIYAESGTMLRKSPYCEFYKKLALKAMDVIARGDVRNVLKLERMKAIYRVEDF”: “not soluble”. The entry for “MLKGKKILLCVTGGIAVFKAAALTSKLTQAGAIVKVMMSESAVKFVTPLTFQALSRHDVYTDTFDEKDSAVIAHIDLADWADVVLVAPATANCIGKLANGIADDMITTTLLATTAPVWIAPAMNVHMYENKIVQKNMMTLKTLGYTFIEPGEGFLACGYVAKGRLEEPEAIIARLEEAFSEQKPLQGKRILITAGPTREKIDPVRFMTNFSSGKMGYAIAEVAVNLGAEVILVSGPTALNPPLHVTTVQVESAQDMLEAVIQHYQNVDVVIKTAAVADYRPKYVHDNKMKKKNGDAVIELERTVDILKTLGEMKDKQLLIGFAAETTNVEEYATKKLREKNANMIVANDVKAQGAGFGTDTNIVTMYRKDGEVIELPLLTKKEVAREILKQIEMMLEDDRL” is “soluble”; for “MLKGKVALVTGASRGIGRAIAKRLANDGALVAIHYGNRKEEAEETVYEIQSNGGSAFSIGANLESLHGVEALYSSLDNELQNRTGSTKFDILINNAGIGPGAFIEETTEQFFDRMVSVNAKAPFFIIQQALSRLRDNSRIINISSAATRISLPDFIAYSMTKGAINTMTFTLAKQLGARGITVNAILPGFVKTDMNAELLSDPMMKQYATTISAFNRLGEVEDIADTAAFLASPDSRWVTGQLIDVSGGSCL” it is “not soluble”.
